Assay results reported in patent US20250236901A1, “METHOD OF DETECTING A MICROORGANISM HAVING HIPPURICASE ACTIVITY” (BIOSYNTH AG, priority 2022, published 2025).

Tested on: Campylobacter jejuni DSM 4688
Test: Detection of hippuricase activity with 4-HHA, 4-aminoantipyrine and oxidizing reagent (color / absorbance at 505 nm)
Format: cell-based
Conditions: FIG. 7B; varied 0 to 4 U/mL; 10 mM 4-HHA; 0.5 mM 4-AAP, 4.5 U/mL HRP, 10 mM glucose
Protocol: Campylobacter jejuni DSM 4688 (C. j., catalase positive), Eschericha coli (E. coli, catalase positive) and Campylobacter coli DSM 4689 (C. c., catalase positive), Streptococcus agalactiae ATCC®12386 (S. a., catalase negative) and Streptococcus pyogenes ATCC®19615 (S. p., catalase negative) were cultivated on Columbia Agar with sheep blood (Thermofischer PB5039A) at 37° C. for 48 h, both Campylobacter strains were cultivated under microaerophilic atmosphere (Oxoid, Campylgen CN0025A).
Biomass of colonies were suspended in sterile phosphate buffer (100 mM, pH 7.4) and the optical density OD was determined and set to OD600 of 0.9.
Two hundred μL of cell suspensions were mixed with 25 μL of 4-hydroxyhippuric acid (4-HHA, Bachem, 4005059) stock solution, prepared in 100 mM phosphate buffer pH adjusted to 7.4 in a microtiter plate (SpektraMax M5, Molecular Devices) and incubated for 70 minutes at 37° C. […] The absorbance at 505 nm was recorded with a plate reader at room temperature. […]
Two hundred μL of cell suspensions were mixed with 25 μL of 100 mM 4-hydroxyhippuric acid (4-HHA, Bachem 4005059) prepared in 100 mM phosphate buffer pH adjusted to 7.4) in a microtiter plate and incubated for 1 h at 37° C. […] The absorbance at 505 nm was recorded with a plate reader (SpektraMax M5, Molecular Devices) at room temperature. […]

B1: GOD: glucose oxidase (GOD, Merck G2133), hydrogen peroxide-generating enzyme (protein, UniProt P13006 17-605, looked up)
Glucose oxidase: LPHYIRSNGIEASLLTDPKDVSGRTVDYIIAGGGLTGLTTAARLTENPNISVLVIESGSYESDRGPIIEDLNAYGDIFGSSVDHAYETVELATNNQTALIRSGNGLGGSTLVNGGTWTRPHKAQVDSWETVFGNEGWNWDNVAAYSLQAERARAPNAKQIAAGHYFNASCHGVNGTVHAGPRDTGDDYSPIVKALMSAVEDRGVPTKKDFGCGDPHGVSMFPNTLHEDQVRSDAAREWLLPNYQRPNLQVLTGQYVGKVLLSQNGTTPRAVGVEFGTHKGNTHNVYAKHEVLLAAGSAVSPTILEYSGIGMKSILEPLGIDTVVDLPVGLNLQDQTTATVRSRITSAGAGQGQAAWFATFNETFGDYSEKAHELLNTKLEQWAEEAVARGGFHNTTALLIQYENYRDWIVNHNVAYSELFLDTAGVASFDVWDLLPFTRGYVHILDKDPYLHHFAYDPQYFLNELDLLGQAAATQLARNISNSGAMQTYFAGETIPGDNLAYDADLSAWTEYIPYHFRPNYHGVGTCSMMPKEMGGVVDNAARVYGVQGLRVIDGSIPPTQMSSHVMTVFYAMALKISDAILEDYASMQ
  GOD enzyme activity sufficient for the reaction: 1 U/mL
